Assay [1] addresses T1, 配列番号16のアルファヘリカルペプチド (peptide containing the second helix peptide of the heterodimer), displayed on 15 nm gold particles.
T1 sequence (peptide): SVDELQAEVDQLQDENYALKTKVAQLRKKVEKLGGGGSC
Nature of the assay: gold nanoparticle aggregation: 500 nM free SEQ 15 added to SEQ 16 particles, absorption spectrum.

The target in assay [2] is T2, 配列番号2のアルファヘリカルペプチド (second helix peptide), displayed on 15 nm gold particles.
T2 sequence (peptide): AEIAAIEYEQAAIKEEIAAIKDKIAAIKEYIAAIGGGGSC
Put plainly: gold nanoparticle aggregation: 500 nM free SEQ 1 added to mixed SEQ 2 and SEQ 3 particles; the read-out belongs to the three-peptide complex.

Assay [3] deals with 配列番号3のアルファヘリカルペプチド (third helix peptide), displayed on 15 nm gold particles. The description is as above.
Assay [4] has as its target T2, 配列番号2のアルファヘリカルペプチド (second helix peptide), displayed on 15 nm gold particles. Put plainly: gold nanoparticle aggregation: 100 µl E. coli lysate supernatant added to 1 ml mixed SEQ 2 and SEQ 3 particles; the read-out belongs to the three-peptide complex.
Assay [5] deals with 配列番号3のアルファヘリカルペプチド (third helix peptide), displayed on 15 nm gold particles. Described as above.

For three molecules, absorption maximum of the gold colloid after addition (about 525 nm before), absorption maximum of the gold colloid after addition (525 nm before) and absorption maximum of the gold colloid after addition results are on record in patent JP2008232916A.

B1: 配列番号15で示されるペプチド (first helix peptide of a heterodimer, SEQ ID NO 13, fused in tandem to both ends of the linker SEQ ID NO 14) (peptide)
peptide: TVAQLEEKVKTLRAQNYELKSRVQRLREQVAQLAGGGGSGGGGSGGGGSTVAQLEEKVKTLRAQNYELKSRVQRLREQVAQLA
In assay [1], B1 had an absorption maximum of the gold colloid after addition (about 525 nm before) of 550 nm.
Take AEIAAIKYKQAAIKNEIAAIKQEIAAIEQMIAAI [配列番号1で示されるアルファヘリカルペプチド (first helix peptide of the heterotrimeric alpha-helical coiled coil)]: the absorption maximum of the gold colloid after addition (525 nm before) in assay [2] and in assay [3] was 555 nm each time.

B2: アルカリフォスファターゼ(配列番号5)と配列番号1のアルファヘリックスとの融合ペプチド(配列番号8) (enzyme)
chain: RTPEMPVLENRAAQGDITAPGGARRLTGDQTAALRDSLSDKPAKNIILLIGDGMGDSEITAARNYAEGAGGFFKGIDALPLTGQYTHYALNKKTGKPDYVTDSAASATAWSTGVKTYNGALGVDIHEKDHPTILEMAKASGLATGNVSTAELQDATPAALVAHVTSRKCYGPSATSEKCPGNALEKGGKGSITEQLLNARADVTLGGGAKTFAETATAGEWQGKTLREQAQARGYQLVNDAASLNAVTEANQQKPLLGLFADGNMPVRWLGPKATYHGNIDKPAVTCTPNPQRNDSVPTLAQMTDKAIELLSKNEKGFFLQVEGASIDKQDHAANPCGQIGETVDLDEAVQRALEFAKKDGNTLVIVTADHAHASQIVAPDTKAPGLTQALNTKDGAVMVMSYGNSEEDSQEHTGSQLRIAAYGPHAANVVGLTDQTDLFYTMKAALGLKGGGSGGGSGGGSLVPRGSAEIAAIKYKQAAIKNEIAAIKQEIAAIEQMIAAI
In the case of B2, the absorption maximum of the gold colloid after addition in assay [4] and in assay [5] was 555 nm each time.
